Assay results reported in the nanobody polyreactivity screen of Harvey et al. (2022).

Test: yeast display, Sf9 membrane polyspecificity reagent, FACS + sequencing; frameworks hold sequencing errors
How it was run: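 Polyreactivity labels are assigned by the sorting gate from which each nanobody was recovered. The gates were low and high (top ~1%), set on anti-HA fluorescence for expression and streptavidin fluorescence for reagent binding. Before sorting, galactose-induced (36–48 hours) yeast display cells were stained for 1 hour at 4 °C with 10% biotinylated, detergent-solubilized Sf9 membrane reagent.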

| Sequence | polyreactivity (PSR sort gate) |
| --- | --- |
| QVQLVESGGGLVQAGGSLRLSCAASGFIFSFYVMGWYRQAPGKERELVAAISTSGASTYYADSVKGRFTISRDNAKNTVYLQMTSLKPEDTAVYYCNVVYRYGGYNYWGQGTQVTVSS | high polyreactivity |
| QVQLVESGGGLVQAGGSLRLSCAASGRILYSYAMGWYRQEPGQEREFVAAIRRSGGSTYYADSVKGRFTISRDNAQNTVYLQMNSLKPEETAVDYCAAGRRSSGSYDYWGQGTQVTVSS | high polyreactivity |
| QVQLVESGAGLVQAGGSLRLSCAASGRIFGYYAMGWYRQAPGQERELVATIRGGGSTNYADSVKGRFTISRDNAKNTVYLQMNSLKPEDTAVYVCAKPGAKWRGFDYWGQGTQVTLSS | low polyreactivity |
| QVQLVESGGGLVQAGGSLRLSCAASGSTFYTYAMGWYRQAPGKERELVAAITFSGDSKYYADSVKGRFTISRDNAKNTVYLQMNSLKPEDTAVYYCAALQKRYYRSWVGYDYWGQGTQVTVSS | high polyreactivity |
| QVQLVESGGGIVQAGGSLRLSCAASGIIFWNYAMGWYRQAPGKERELVAAITDGGSTYYADSVKGRFTISRDNEKNTVYLQMNSLKPEDNAVYYCNTDWAYLSDYWGQGTQVTVSS | low polyreactivity |
| QVQLVESGGGLVQAGGSLRLSCAASGSTFFIYAMGRYRQAPGKERELVAAISGSGGTTYYADSVKGRFTISRDNAKNTVYLQMNSLKPEDTAVYYCAARTFSAFWRGGYDYWGQGTQVTVSS | low polyreactivity |
| QVKHVESGGGLVQAGGSLRLSCAASGFTFYTYAMGWYRQKPGKESELVATISSGGRTNYADSVKGRFTISRDNAKNTVYLQMNSLKPEDTAVYYCYKRHRGGAVRFDSWGQGTQVTVSS | low polyreactivity |
| QVQLVESGGGLVQAGGSLRLSCAASGGTFGNNDMGWYRQAPGKERELVAAIRSAGTTYYADSVKGRFTISRDNAKNTVYLQMNSLKPEDTAVYYWNADTTGYWSFGFQYYGEDYWGQGTQVTVSS | low polyreactivity |
| QVQLVESGGGLVQAGRSLRLSCAASGSTFWEYAMGWYRQAPGNEREFVAAISTSGGSTYYADSLKGRFTISRDTAKYTVYLQMNSLKPEDTAVYYCAAGRVRRRVWYNYWGQGTQVTVSS | high polyreactivity |
| QVQLVESGGGLVQAGGSLRLSCAASGSIFPVNAMGWYRQAPGKEREWVAAISVSGGRTYYADSVKGRFTISRDNAKNTVYLQMNSLKPEDTAVYYCNKLLARGYASGYDYWGQGTQVTVSS | high polyreactivity |
| QVQLVESGGGLVQAGGSLRLSCAASGRIFGSYAMGWYRQAPGKERELVAAITRGGSTNYADSVKGRFTISRDNAKNTVYFQMNSLKPEDTAVYYCARWVGLHYPYYYWGQGTQVTVSS | high polyreactivity |
| QVQLVESGGGLVQAGGSLRLSCAASGITFFRYAMGWYRQAPGKEREFVAAISGRGGSTYYADSVKGRFTISRDNAKNTVYLQMNSLKPEDTAVYYCATRRSYLADYWGQGTQVTVSS | high polyreactivity |
| QVQLLESGGGLVQAGGSLRLSCAPSGRTLVHYGMGWYRHAPGKERELVAAISYSGGRTYYADSVKGRVTISRDNAKNTVYLQMNSLKPEDTAVYYCAKDFGSYQRRYGYWGQGTQVTVSS | high polyreactivity |
| QVQLVESGGGLVQAGGSLRLSCAASGSTFADYAMGWYRQAPGKERELVAAITQSGGSTSYADSVKGRFTISRDNAKNTVYLQMNSLKPEDTAVYYCNVDDSTWIGAYRRYDYWGQGTQVTVSS | low polyreactivity |
| QVQLVESGGGLVQAGGSLRLSCAASGSIFAQYGLGWYRQAPGKERELVADISGPGVSTYYADSVKGRFTISRDNAKNTVYLQMNSLKPEDSAVYYCAADYYYPYYWGQGTQVTVSS | low polyreactivity |
| QVQLVESGGGLVHAGGSLRLSCAASGTISAYAMGWYRPAPGKERELVAAISYSGGSTYYADSVKGRFTISRDNAKKTVYLQMNSLKPEDTAVYYCNARARWYYPYKTYYYWGQGTQVTVSS | high polyreactivity |
| QVQLVESGGGLVQAGGSLRLSCAATGTFRRYAMGWYRQAPGKERELVAAITRNGGSTYYADSVKGRFTISRDNAKNTVYLQMNSLKPEDTAVYYCAAGLFWGGFRQWTDHHFDCDYYWGQGTQVTVSS | high polyreactivity |
| QVQLVESGGGLVQAGGSLRLSCAASGFTFYRNAMGWYRQAPGKERELVAAISSRGGSTYYADSVKGRFTISRDNAKNTVYLQLNSMKPEDNAVYYCAAYGNYNEYDYGGQGTQVTVSS | high polyreactivity |
| QVHLVDSGGGLVQARGSLRLSCAASGFTIGPYAMGWYRQAPGKERELVAAITIRGGSTYADSVKGRFTISRDNAKNTVYLQMNSLKPEDTAVYYCATVRALEYNYWGQGTQVTVSS | low polyreactivity |
| QVQLVESGGGLVQAGGSLRLSCAASGLTSEGNAMGWYRQAPGKERELVAAIDYRGGSTYYADSVKGRFTISRDNAKNSVYLQMNSLKPEDTAVYYCAADYPRGYIDDGDYWGQGTQVTVSS | low polyreactivity |
| QVQLVESGGGLVQAGGSLRLSCAASGLIFTDNTRGWYRQAPGKEREFVADISSSGGITYYADSVKGRFTFSRDNAKNTVYLQMNSLKPEDTAVYYCNAERGYDYLDGYPFFIYDYWGQGTQVTVSS | low polyreactivity |
| QVQLVESGGGLVQAGGSLRLSCAASGSTIPYYAMGWYRQAPGKERELVATISSSGGSTYYADSVKGRFTISRDNAKNTVYLQMKSLKPEDTAVYYCAARYQTSGFRYRYGYWGQGTQVTVSS | high polyreactivity |

| Sequence | polyreactivity (PSR sort gate) |
| --- | --- |
| QVQLVESGGGLVQAGGSLRLSCAASGNTFYYAKAWYRQAPGKERELVASIRTGGSTNYADSVKGRFTISRDNAKNTVYLQMNSLKPEDTAVYYCNRDGTYTHTGWDYWRPYEYWGQGTQVTVSS | low polyreactivity |
| QVQLVESGGGLVQAGGSLRLSCAASGRTFFSYTMGWSRQAPGKERELVAAISDSDGRTYYADSVKGRFTISRDNAKNTVYLQMNSLKPEDTAVYYCAAVPDKDWSRVRRYLFEDIYWGQGTQVTVSS | low polyreactivity |
| PVQLQESGGGLVQAGGSLRLSCAARGSIFKVVDMGLYRQAPAKEREFVATIGEGGNTYYADSVKGRFTISRDNAKNTVYLQMNSLKPEDTAVYFSAVVLGTSYRYTYWGQGTQVTVSS | low polyreactivity |
| QVQLVESGGGLVQAGGSLRLSCAASGSIFGVYTMGWYRQAPGKERELVAAIRGVGSTNYADSVKGRFTISRDNAKNTVYLQMNSLKPEDTAVYYCASRYAYGMWGQGTQVTVSS | low polyreactivity |
| QVLLVESGGGLVQAGGSLRLSCASSGRILGYYAKGWYRQAPGKERELVAGITYSAGRTYYADSVKGRFTISRDNSKNTVYLQINRQTPEDTAVYYCAKALVRSGSTRGTPGYSYWGQGTQVTVSS | high polyreactivity |
| QVQLVESGGGLVQAGGSLRLSCAASGSTFEIYAMGWYRQAPGKERELVATITWSGGSTYYADSVKGRFTISRDNAKNTVYLQMNSLKPEDTAVYYCAAESIYYPVAQYYYSFEYWGQGTQVTVSS | low polyreactivity |
| QVQLVESGGGLVQAGGSLRLSCAASGSIFSSYAMGWYIQAPGKEMELVAGITWGGASTYYADSVKGRFTISRDNAKNTVYLQMNSLKPEDTAVYYCNRRAWVYYAPFTVIVLYGRDYWGQGTQVTVSS | low polyreactivity |
| QVQLVESGGGLVQAGGSLRLSCAASGRTLRYNTKGWYRQAPGKERELVADISWTGGSTYYADSVKGRFTISRDNAKNTVYLQMNSLKPEDTAVYYCAADEWWYPWYDYWGQGTQVTVSS | high polyreactivity |
| QVQLVESGGGLVQAGGNLRLSCAASGRTFRFNAMGWYRQAPGKERELVAAISFRGGSTYYADSVKGRFTISRDNAKNTVYLQMTSLKPEDTAVYYCAADNPYQGRKFDYWGQGTQVSVSS | high polyreactivity |
| QVQLVESGGGLVQAGGSLRLSCAASGSILWLYAMGWYRQAPGKERELVAAISGSGRTNYADSVKGRFTISRDNAKNTVYLQMNSQKPEDTAVYYCARVHGTSESKYYYWGQGTQVTVSL | low polyreactivity |
| QVQLVESGGGLVQEGGSLRLSCAASVFIIDYYAMGWYRQAPGKERELVASISYNSVSTTYADSVKGRFTISRDNAKNTVYLQMNSLKPEDTAVYYCAATSWYWAYTYYYWGQGTQVTVSS | low polyreactivity |
| QVQLVESGGGLVQAGGSLRLSCAASGSTFYPYGMGWYRPAPGKERELVAAITDSGGSTYYADSVKGRFTISRDNAKNTVYLQMNSLKPEDTAVYYCAKTYWYPWRASLWHEYDYWGQGTQVTVSS | low polyreactivity |
| QVQLVESGGGLVQAGGSLRLSCAASGFTFGGYAMGWYRQAPGKERELVAAISQSGGRTYYADSVKGRFTISRDHAMNTVDLQMISLKPEDTAVYYCAKPSTTYYQRGDYWGQGTQVTVSS | high polyreactivity |
| QVQLVESGGGLVQAGGSLRLSCAASGSTLDSNAMGWYRQAPGKERELVAGIDWSGGSTYADSVKGRFTISRDNAKNTVYLQMNSLKPEDTAVYYCAKVSRYVQPYSRFDYWGQGTQVTVSS | low polyreactivity |
| QVQLVESGGGLVQAGGSLRLSCAASGSIFLNNAMGWYSQAPGKERELVAAITRNVGSTYYADSVKGRFTISRDNAKNTVYLQMNSMKPEATAVYYCAADRRRRYDYWGQGTQVTVSS | low polyreactivity |
| QVQLVESGGGLVQAGGSLRLSCAASGRIFAHNAMGWYRQAPGKERELVAAISGTGGRTYYADSVKGRFTISRDNAKNTVYLQMNSLKPEDTAVYYCARRPTHRTGVLDWEYDYWGQGTQVTVSS | low polyreactivity |
| QVQLVESGGGLVQAGGSLRLSCAASGRTFIGYAMGWYRQAPGKERELVATISVSGGSTYYADSVKGRFTISRDNAKNTVYLQMNSLKPEDTAVYYCAKAYLRYYDGPYDYWGQGTQVTVSS | low polyreactivity |
| QVQLVESGGGLVQAGGSLRLSCAASGYIFYFYAMGWYRQAPGKERELVAAITSVGSTKYADSVKGRFTISRDNAKNTVYLQMNSLKPEDTAVYYCAARRWRSYYYWGQGTQVTVSS | high polyreactivity |
| QVQLVESGGGLVKAGGSLRLSSAATGFIFAYYDMGWYRQAPGKERELVAAISSRGGTYYADSVKGRFTISRDNATITVYLKMNCLKPEDTAVYDCAAASYTWVSRGYEYWGQGTQVTVSS | high polyreactivity |
| QVQLVESGGGLVQAGGSLRLSCAASGITFTGYDMGWYRQAPGIERELVADISNGSSTDYADSVKGRFTISRDNAKKTVYLQMNSLNPEDTAVYYCAVDIDNWSEYDYWGQGTQVTVSS | low polyreactivity |
| QVQLVDSGGGLVQAGGSLRLSCAASGITLSWYAKGWYRQAPGQERELVAGISGRGGRTYYADSVKGRFTISRDNAKNTVYLQMNSLKPEDTAVYYCAAVSPGYRSYDYWGQGTQVTVSS | high polyreactivity |
